From article PMC11093223, “Cargo selective vesicle tethering: The structural basis for binding of specific cargo proteins by the Golgi tether component TBC1D23” (Science Advances, 2024)

B1: syntaxin-16 peptide L213A (peptide)
peptide: DDNTAYHRGFTED
notes: syntaxin-16, human, residues 209-221 with L213A
B2: syntaxin-16 peptide Y214W (peptide)
peptide: DDNTLWHRGFTED
notes: syntaxin-16, human, residues 209-221 with Y214W
B3: syntaxin-16 peptide T212S (peptide)
peptide: DDNSLYHRGFTED
notes: syntaxin-16, human, residues 209-221 with T212S
B4: syntaxin-16 peptide L213F (peptide)
peptide: DDNTFYHRGFTED
notes: syntaxin-16, human, residues 209-221 with L213F
B5: syntaxin-16 peptide Y214F (peptide)
peptide: DDNTLFHRGFTED
notes: syntaxin-16, human, residues 209-221 with Y214F
B6: syntaxin-16 (209–221) peptide (peptide, UniProt O14662 209-221, looked up)
peptide: DDNTLYHRGFTED
notes: syntaxin-16, human, residues 209 to 221, beginning 209DDNTLY (T212, L213, Y214, R216); also called syntaxin-16 peptide; wild type; source: peptide
B7: syntaxin-16 peptide Y214F (peptide, UniProt O14662 209-221, looked up)
peptide: DDNTLFHRGFTED
notes: syntaxin-16, human, peptide 209 to 221 as m28; source: peptide
B8: syntaxin-16 peptide T212S (peptide, UniProt O14662 209-221, looked up)
peptide: DDNSLYHRGFTED
notes: as for B7
B9: syntaxin-16 peptide Y214W (peptide, UniProt O14662 209-221, looked up)
peptide: DDNTLWHRGFTED
notes: as for B7

Experiments:
Conditions in all cases: both partners purified
[1] = target: T1, Mouse TBC1D23 (559-684), C-terminal domain (mouse, UniProt Q8K0F1 559-684); assay: ITC; peptide (0.8 to 5 mM) titrated into 100 uM TBC1D23 C-terminal domain, 20 injections of 2.4 ul; 20°C; 100 mM NaCl, 100 mM tris pH 7.4, 1 mM TCEP; mean of three runs
T1 construct: TBC1D23, mouse, UniProt Q8K0F1 (684 residues), C-terminal domain, residues 559-684; also called TBC1D23 C-terminal domain; TBC1D23 full length C-terminal domain; source: E. coli BL21 plyS, purified (glutathione-Sepharose, thrombin cleavage, Superdex 200 gel filtration)
T1 sequence (Q8K0F1 559-684): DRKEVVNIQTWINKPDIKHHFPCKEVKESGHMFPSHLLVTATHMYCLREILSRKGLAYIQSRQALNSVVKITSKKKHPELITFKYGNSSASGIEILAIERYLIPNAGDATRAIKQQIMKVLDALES

[2] = target: T2, TBC1D23 C-terminal domain I675W (mouse, UniProt Q8K0F1 559-677, I675W); assay: ITC; peptide (0.8 to 5 mM) titrated into 100 μM TBC1D23 C-terminal domain, 20°C, 100 mM NaCl, 100 mM tris pH 7.4, 1 mM TCEP, Nano ITC
T2 construct: TBC1D23, mouse, UniProt Q8K0F1, C-terminal domain (limits as m7, in data S3); source: E. coli BL21 plyS, purified (glutathione-Sepharose, GST cleaved with thrombin, Superdex 200)
T2 sequence (Q8K0F1 559-677 I675W): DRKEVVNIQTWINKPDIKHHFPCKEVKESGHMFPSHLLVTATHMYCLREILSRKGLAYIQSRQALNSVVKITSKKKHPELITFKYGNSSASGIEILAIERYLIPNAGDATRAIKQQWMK

[3] = target: T3, TBC1D23 C-terminal domain (mouse, UniProt Q8K0F1 559-684); assay: as above
T3 construct: TBC1D23, mouse, UniProt Q8K0F1, C-terminal domain ending with VLDALES at residue 684; used for ITC and for the 3.3 Å crystals; also called the C-terminal domain; TBC1D23 full-length C-terminal domain; source: E. coli BL21 plyS, purified (glutathione-Sepharose, GST cleaved with thrombin, Superdex 200)
T3 sequence (Q8K0F1 559-684): as the sequence (Q8K0F1 559-684) above

[4] = target: T4, TBC1D23 C-terminal domain K672A (mouse, UniProt Q8K0F1 559-677, K672A); assay: as above
T4 construct: TBC1D23, mouse, UniProt Q8K0F1, C-terminal domain (limits as m7, in data S3); source: E. coli BL21 plyS, purified (glutathione-Sepharose, GST cleaved with thrombin, Superdex 200)
T4 sequence (Q8K0F1 559-677 K672A): as the sequence (Q8K0F1 559-677 I675W) above, with K114A, W117I counted along it

Binder	Kd [1] [µM]	Kd [3] [µM]	other results
B1	> 200		
B2	5.6		
B3	30.1		
B4	150		
B5	15.5		
B6		~1.4	Kd [2]: > 300 µM; stoichiometry N [3]: 1; Kd [4]: ~30 µM
B7		~15	
B8		~30	
B9		~7	
